Source: publication PMC3961267

System: P266L T7 RNA polymerase (bacteriophage T7)
Assay: fluorescence anisotropy
Conditions: Buffer A: 50 mM Tris-acetate, 50 mM sodium acetate, 10 mM magnesium acetate, 5 mM DTT, 25 C; pH not stated

Substance TAMRA-labeled T7 consensus promoter DNA has a Kd of 3.6 nM.
